Here are results for 5 molecules from article PMC4491694, “New Variants of Tomato Thymidine Kinase 1 Selected for Increased Sensitivity of E. coli KY895 towards Azidothymidine” (Cancers, 2015).

Substitutions are numbered along the chain they refer to. Names and notes keep the numbering of the source.

Data set [1] concerns the target T1, ToTK1 (Solanum lycopersicum, UniProt Q71F77, T78A/N123S).
T1 construct: full length, 234 residues; GST fusion from pGEX-2T, thrombin-cleaved, recombinant
T1 sequence (Q71F77 1-234 T78A/N123S): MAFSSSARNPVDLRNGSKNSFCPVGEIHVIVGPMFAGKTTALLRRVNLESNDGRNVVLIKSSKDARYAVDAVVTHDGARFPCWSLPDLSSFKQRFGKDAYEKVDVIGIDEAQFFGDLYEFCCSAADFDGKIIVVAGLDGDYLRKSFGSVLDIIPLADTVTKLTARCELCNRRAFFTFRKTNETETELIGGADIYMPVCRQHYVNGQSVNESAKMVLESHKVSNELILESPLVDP
Briefly: nucleoside kinase assay, 3H-labelled nucleoside, Michaelis-Menten fit. The data set is classed as biochemical. Particulars: labelled compound (3H). The text has this: (§1) nucleoside kinase assay, 3H-labelled nucleoside, Michaelis-Menten fit on ToTK1

For data set [2], the target named is T2, ToTK1 (Solanum lycopersicum, UniProt Q71F77).
T2 construct: full length, 234 residues; GST fusion from pGEX-2T, thrombin-cleaved, recombinant
T2 sequence (Q71F77 1-234): T1 sequence (Q71F77 1-234 T78A/N123S) with A78T, S123N
The data set is described as above. The data set is classed as biochemical. Particulars: labelled compound (3H).
From the text: as §1

In data set [3] the target is T3, ToTK1ΔC25 (Solanum lycopersicum, UniProt Q71F77).
T3 construct: last 25 C-terminal residues of the 234-residue protein deleted (residues 210-234, borders derived); GST fusion from pGEX-2T, thrombin-cleaved, recombinant
T3 sequence (Q71F77 1-209): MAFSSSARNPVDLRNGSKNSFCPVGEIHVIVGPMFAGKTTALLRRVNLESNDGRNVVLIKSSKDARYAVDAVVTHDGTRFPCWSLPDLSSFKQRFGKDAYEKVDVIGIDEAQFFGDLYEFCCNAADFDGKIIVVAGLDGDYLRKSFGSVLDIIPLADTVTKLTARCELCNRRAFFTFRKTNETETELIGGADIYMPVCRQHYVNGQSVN
The description is as above. Format: biochemical. The note with it: labelled compound (3H). The text has this: (§2) nucleoside kinase assay, 3H-labelled nucleoside, Michaelis-Menten fit on ToTK1ΔC25

Data set [4] addresses T4, ToTK1 (Solanum lycopersicum, UniProt Q71F77, N123S/T78A).
T4 construct: full length, 234 residues; GST fusion from pGEX-2T, thrombin-cleaved, recombinant
T4 sequence (Q71F77 1-234 T78A/N123S): T1 sequence (Q71F77 1-234 T78A/N123S)
Briefly: nucleoside kinase assay, 3H-labelled nucleoside substrate; Ki equals IC50. Format: biochemical. Particulars: read-out: dThd. The source says: nucleoside kinase assay, 3H-labelled nucleoside substrate; Ki equals IC50 on ToTK1

In data set [5] the target is T3, ToTK1ΔC25. The data set is described as follows: nucleoside kinase assay, 3H-labelled nucleoside substrate. Format: biochemical. Particulars: read-out: IC50 dTTP (μM) / dThd. The source says:
nucleoside kinase assay, 3H-labelled nucleoside substrate on ToTK1ΔC25

The target in data set [6] is T2, ToTK1. Described as above. The note with it: read-out: IC50 dTTP (μM) / dThd. The data set is classed as biochemical. The text has this:
(§3) nucleoside kinase assay, 3H-labelled nucleoside substrate on ToTK1

The target of data set [7] is T4, ToTK1. The data set is described as above. Format: biochemical. The note with it: read-out: IC50 dTTP (μM) / dThd.
From the text: as §3

Substrate in data set [8]: O=c1ccn([C@H]2C[C@H](O)[C@@H](CO)O2)c(=O)[nH]1
The data set is described as follows: nucleoside kinase assay, 3H-labelled nucleoside, Michaelis-Menten fit. The data set is classed as biochemical, Solanum lycopersicum. The note with it: labelled compound (3H).
From the text: as §2

Substrate in data set [9]: Cc1cn([C@H]2C[C@H](O)[C@@H](CO)O2)c(=O)[nH]c1=O
The data set is described as above. The note with it: labelled compound (3H). The data set is classed as biochemical, Solanum lycopersicum.
From the text: as §1

Substrate in data set [10]: O=c1ccn([C@H]2C[C@H](O)[C@@H](CO)O2)c(=O)[nH]1
Described as above. Format: biochemical, Solanum lycopersicum. Particulars: labelled compound (3H).
From the text: as §1
This is another data set of the same source.

With `Cc1cn([C@H]2C[C@H](N=[N+]=[N-])[C@@H](CO)O2)c(=O)[nH]c1=O` [AZT, 3-azido-2,3-dideoxythymidine], the figures for the Michaelis constant (Km) at ToTK1 [1], at ToTK1 [2] and at ToTK1ΔC25 [3] were 1.1 ± 0.1 µM, 1.2 ± 0.04 µM and 2 ± 0.06 µM, respectively.
Take `Cc1cn([C@H]2C[C@H](O)[C@@H](COP(=O)(O)OP(=O)(O)OP(=O)(O)O)O2)c(=O)[nH]c1=O` [dTTP]: the Ki at ToTK1 [4] was 55.6 µM. The IC50 on ToTK1ΔC25 [5] was found to be 65.2 ± 6 µM; at ToTK1 [6] it was 49.1 ± 1.7 µM; on ToTK1 [7] it was 55.6 ± 5.2 µM.

B1: ToTK1ΔC25 (Solanum lycopersicum) (protein)
chain: T3 sequence (Q71F77 1-209)
notes: last 25 C-terminal residues of the 234-residue protein deleted (residues 210-234, borders derived); GST fusion from pGEX-2T, thrombin-cleaved, recombinant
On to B1, for which, in data set [8], the Km was found to be 27 ± 3.3 µM, the Vmax is 4 µmol/min/mg, the kcat worked out at 1.54 s⁻¹ and the kcat/Km was 57000 M⁻¹ s⁻¹.

B2: ToTK1 (Solanum lycopersicum; N123S/T78A) (protein)
chain: T1 sequence (Q71F77 1-234 T78A/N123S)
notes: full length, 234 residues; GST fusion from pGEX-2T, thrombin-cleaved, recombinant
B2: in data set [9], the Km came out at 1.3 ± 0.36 µM, the Vmax was determined as 1.6 µmol/min/mg, the kcat worked out at 0.69 s⁻¹ and the kcat/Km was 531000 M⁻¹ s⁻¹. In addition, in data set [10], the Km was 15 ± 3.3 µM, the maximal velocity (Vmax) turned out to be 1.9 µmol/min/mg, the kcat amounted to 0.82 s⁻¹ and the kcat/Km came to 54700 M⁻¹ s⁻¹.

B3: ToTK1 (Solanum lycopersicum) (protein)
chain: T1 sequence (Q71F77 1-234 T78A/N123S) with A78T, S123N
notes: as for B2
On to B3, for which, in data set [10], the Km was 17 ± 0.5 µM, the Vmax is 3.4 µmol/min/mg, the kcat is 1.47 s⁻¹ and the kcat/Km came out at 86500 M⁻¹ s⁻¹.

What is called Km is the substrate concentration at which the rate is half of its maximum. What is called Vmax is the top rate of the reaction or transport when substrate is in excess. The term kcat denotes the maximal rate divided by the concentration of active sites. In general, kcat/Km refers to the second-order rate constant that governs catalysis at low substrate concentration.
